# Target: Mu-opioid receptor, P35372
# Sequence (P35372 whole entry): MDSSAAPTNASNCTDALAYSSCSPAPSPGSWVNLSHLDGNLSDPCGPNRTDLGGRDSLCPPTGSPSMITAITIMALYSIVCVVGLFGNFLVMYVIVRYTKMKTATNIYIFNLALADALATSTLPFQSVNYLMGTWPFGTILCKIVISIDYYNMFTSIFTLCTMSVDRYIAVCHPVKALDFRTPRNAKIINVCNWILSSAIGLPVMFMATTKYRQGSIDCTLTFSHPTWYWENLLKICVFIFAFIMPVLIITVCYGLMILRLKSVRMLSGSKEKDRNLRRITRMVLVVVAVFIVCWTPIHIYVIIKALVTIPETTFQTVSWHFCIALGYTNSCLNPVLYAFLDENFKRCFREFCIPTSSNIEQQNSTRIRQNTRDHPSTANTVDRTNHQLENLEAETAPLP
binder,measurement,value
YGGFLRR (modifications not checked) [Dyn1-7],"Activity (EC50, nM) for cAMP in MOP receptor over-expressing HEK293 cells",3740 nM

# Source: PMC10020352
